Experiment: Tf-DAK-PEG-OPSS degradation in pH 5.5 buffer followed by MALDI-TOF
Type: physicochemical
Conditions: 37° C., crude mixture
Procedure: At various time points, aliquots were removed, diluted 1:10 in 10 mM NaH2PO4 pH 8.0 and frozen on CO2(s). Once the last aliquot was removed, all samples were melted and immediately measured by MALDI-TOF using a sinapinic acid matrix.

Question: Which “Time by which nearly all the PEG has cleaved” value does the source give for “Tf-DAK-PEG-OPSS: human holo-Tf conjugated through diamino ketal (DAK) linker to PEG-orthopyridyl disulfide” here?
Answer: ≤ 2 h

Source: US10182986B2, “Method of delivering therapeutics and imaging agents to the brain by nanoparticles that cross the blood brain barrier” (CALIFORNIA INSTITUTE OF TECHNOLOGY, priority 2013, dated 2019)
